In US20260234247A1 (published 2026):

How the values were obtained:
[1] = molecular target: T1, human LILRB1 on CHOK1 cells (human, UniProt Q8NHL6 24-650); assay: FACS binding, CHOK1-hLILRB1 cells
T1 construct: whole, on cells; also called CHOK1-hLILRB1; CHOK1-LILRB1

[2] = molecular target: T2, human LILRB2 on CHOK1 cells (human, UniProt Q8N423 22-597); assay: FACS binding, CHOK1-hLILRB2 cells
T2 construct: whole, on cells; also called CHOK1-hLILRB2; CHOK1-LILRB2

[3] = molecular target: T1, human LILRB1 on CHOK1 cells; assay: cell-based RBA (FACS): blocking of HLA-G binding to CHOK1-hLILRB1 cells

T2 sequence (Q8N423 22-597): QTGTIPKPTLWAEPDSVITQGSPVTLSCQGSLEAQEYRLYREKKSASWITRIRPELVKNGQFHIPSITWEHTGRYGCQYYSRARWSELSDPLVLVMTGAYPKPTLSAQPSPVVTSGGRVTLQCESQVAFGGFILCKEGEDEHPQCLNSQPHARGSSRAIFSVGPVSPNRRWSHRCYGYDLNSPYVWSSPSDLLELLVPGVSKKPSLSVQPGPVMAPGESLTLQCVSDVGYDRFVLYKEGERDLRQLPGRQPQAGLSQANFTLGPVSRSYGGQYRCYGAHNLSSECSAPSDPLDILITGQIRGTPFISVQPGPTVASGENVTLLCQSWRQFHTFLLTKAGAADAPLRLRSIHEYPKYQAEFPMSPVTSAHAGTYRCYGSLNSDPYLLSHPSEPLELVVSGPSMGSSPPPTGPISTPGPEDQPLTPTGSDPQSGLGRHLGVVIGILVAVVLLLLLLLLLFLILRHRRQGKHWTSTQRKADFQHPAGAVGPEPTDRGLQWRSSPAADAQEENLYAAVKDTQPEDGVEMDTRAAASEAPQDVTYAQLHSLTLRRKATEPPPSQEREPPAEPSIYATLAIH
T1 sequence (Q8NHL6 24-650): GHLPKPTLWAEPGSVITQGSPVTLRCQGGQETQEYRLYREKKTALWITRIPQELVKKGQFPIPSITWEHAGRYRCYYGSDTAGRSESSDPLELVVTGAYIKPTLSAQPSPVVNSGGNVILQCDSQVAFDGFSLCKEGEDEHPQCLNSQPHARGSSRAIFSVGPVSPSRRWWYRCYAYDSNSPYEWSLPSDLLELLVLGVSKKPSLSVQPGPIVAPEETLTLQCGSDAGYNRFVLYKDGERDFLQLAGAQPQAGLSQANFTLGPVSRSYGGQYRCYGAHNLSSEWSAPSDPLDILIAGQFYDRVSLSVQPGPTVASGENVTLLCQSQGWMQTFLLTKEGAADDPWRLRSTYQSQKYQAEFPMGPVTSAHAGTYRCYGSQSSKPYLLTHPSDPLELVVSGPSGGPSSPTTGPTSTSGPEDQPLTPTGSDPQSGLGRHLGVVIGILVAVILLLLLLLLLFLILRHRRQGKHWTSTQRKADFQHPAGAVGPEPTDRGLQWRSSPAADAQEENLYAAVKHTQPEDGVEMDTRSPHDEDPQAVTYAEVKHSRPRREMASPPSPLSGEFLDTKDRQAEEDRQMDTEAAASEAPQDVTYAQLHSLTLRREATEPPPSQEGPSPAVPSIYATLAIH

Binder	EC50 [1]	binding result [2]	EC50 [3]	Top Inhibition (%) [3]
LK-RB1-10 (antibody, human IgG4 S228P, kappa, V domains shown) VH: QVTLKESGPGILKPSQTLSLTCSFSGFSLSTSGTGVGWIRQPSGKGLEWLAHIWWNDDKYYKPSLKRQLTISKDTSRNQVFLKITSVDTADTATYYCTRTELGRGDYWGQGTSVTVSS VL: DILLTQSPAILSVSPGERVSFSCRASQSIGTNIHWYQQRMNGSPRLIIKYASELISGIPSRFSGSGSGTDFTLSINSVESEDIADYYCQQSYGWPYTFGGGTKLETKR	0.7 nM	no binding	1.04 nM	83.1%
LK-RB1-14 (antibody, human IgG4 S228P, kappa, V domains shown) VH: QVTLKESGPGILKPSQTLSLTCSFSGFSLSTSGMGVGWIRQPSGKGLEWLAHIWWDDDKYYNPSLKSQLTISKDTSRNQVFLKITSVDTADTATYYCARTELGRGDSWGQGTSVTVSS VL: DILLTQSPAILSVSPGERVSFSCRASQSIGTSIHWYQQRTNGSPRLLIKYASESISGIPSRFSGSGSGTDFTLSINSVESEDIADYYCQQSYSWPYTFGGGTKLEIKR	0.47 nM	no binding	0.65 nM	81.2%
LK-RB1-4 (antibody, human IgG4 S228P, kappa, V domains shown) VH: QVQLQQPGAELVKPGASVKLPCKTSGYTFTSYWMHWVKQRPGRGLEWIGRIDPHYSGTKYNEKFKNKATMTVDTPSSTAYMQLSSLTSEDSAVYYCARFDGDPYYFDYWGPGTTLTVSS VL: DIVMTQSQKFMSTSVGDRVSVTCKASQNVGTNVAWYKQKAGQSPKAVIYSASYRYSGVPDRFTGSGSGTDFTLSISNVQSEDLAEYFCQQYNNNPFTFGSGTKLEIKR	1 nM	no binding	1.74 nM	85.9%
LK-RB1-8 (antibody, human IgG4 S228P, kappa, V domains shown) VH: QVQLQQSGAELVRPGTSVKVSCKASGYAFSNYLIEWVKQRPGQGLEWIGVINPGSDGSTYNEKFKGKATLTADKSSNTAYMQLSSLTSEDSAVYFCARGDYGRSYGMDYWGQGTSVTVSS VL: DIVMTQSQKFMSTTVGDRVSITCKASQNVGTAVVWYQQKPGQSPKLLIYSASNRYTGVPDRFTGSGSGTDFTLTISNMQSEDLADYFCQQYSSYMYTFGGGTKLEIKR	1.14 nM	no binding	2.56 nM	86.9%
LK-RB1-2 (antibody, human IgG4 S228P, kappa, V domains shown) VH: QIQLVQSGPELKKPGETVKISCKASGYTFTTYGVSWVKQAPGKGLKWMGWINTYSGVSTYSDDFKGRFAFSLETSASTAYLQIINLKNEDAATYFCSRRRRTYDGYLSFDYWGQGTTLTVSS VL: DIQMTQSPGSLSASVGETVTITCGASENIYGALNWFQRKPGKSPQLLIYGATNLADGMSSRFSGSGSGRQYSLQISSLRPDDVATYYCQNVLTTPWTFGGGTKVEIKR	0.28 nM	no binding	0.44 nM	81.9%
LK-RB1-9 (antibody, human IgG4 S228P, kappa, V domains shown) VH: QIQLVQSGPELKKPGETVKISCTASGYTFTTYGMSWVKQAPGKGLKWMGWINTYSGVPTYADDFKGRFAFSLETSASTAYLEINNVKNEDTATYFCARRRRTYHGYLCFDYWGQGTTLTVSS VL: DIQMTQSPVSLSASVGETVTITCETSENIYGALNWYQRKQGKSPQLLIYGATNLADGMSSRFSGSGSGRQYSLEISSLHPDDVASYYCQNVLNTPWTFGGGTKLEIKR	0.34 nM	no binding	0.78 nM	88.1%
LK-RB1-11 (antibody, human IgG4 S228P, kappa, V domains shown) VH: QVTLKESGPGILQPSQTLSLTCSFSGFSLKTSGMSVGWIRQPSGKGLEWLAHIWWNDDKYYNPVLKGRLTISKDTSNNLVFLKIASVVSTDTATYYCVRYGNSHGYWYFDVWGTGTTVTVSS VL: NIVLTQSPASLAVSLGQRATISCRASESVDSYGNNFIHWYQQKPGQPPKVLIYYASNLEAGVPARFSGSGSRTDFTLTIDPVEAEDAATYYCQQNNEDPYTFGGGTKLEIER	0.61 nM	no binding	1.34 nM	78.9%
LK-RB1-3 (antibody, human IgG4 S228P, kappa, V domains shown) VH: QVQLQQPGAELVKPGTSVNLSCKASGYTFTSYWIHWVKQRPGRGLEWIGRINPYSSGTRYNEKFKNKATLTVDKPSSTAYMQLTSLTSEDSAVYYCARFDGAPDYFDFWGQGTTLTVSS VL: DIVMTQSQKFMPTSVGDRVNVTCKASQNVGINVAWYQQKLGQSPKALIYSASYRYSGVPDRFTGSGSGTDFTLTINSVQSEDLADYFCQQYNNYPFTFGSGTKLEIKR	1.14 nM	no binding	2.08 nM	87%
LK-RB1-5 (antibody, human IgG4 S228P, kappa, V domains shown) VH: QVQLQQPGAELVKPGASVKLSCKASGYTFTDFWIHWVKQRPGQGLEWIGMIHPNSGSTNFNEKFRAKATLTVDKSSSTAYMRLSSLTSEDSAVYYCARSGDGYSNPMDYWGQGTSVTVSS VL: QIVLSQSPAILSASPGEKVTLTCRASSSVSYMHWYQQKPGSSPKPWIYATSNLASGVPVRFSGSGSGTSYSLTISRMQTEDAATYYCQQWRRSPYTFGGGTKLEIKR	1.4 nM	no binding	1.97 nM	23%
LK-RB1-6 (antibody, human IgG4 S228P, kappa, V domains shown) VH: QIQLVQSGPELKKPGETVKISCKASGYTFTTYGMSWVKQAPGKDLKWMGWINTFSGVPACADDFQGRFDFSAEPSDSTAHLQINNLKNEDTATYFCARRSYYGSRGWYFDVWGTGTTVTVSS VL: DIVMTQSHKFMSTSVGDRVSITCTASEDVNTAVAWYQQKPGQSPKLLIYWASTRHTGVPDRFTGSGSGTDYTLTISSVQTEDLALYYCQQHYNTPYTFGGGTKLEIKR	0.22 nM	no binding	0.54 nM	69.7%
LK-RB1-12 (antibody, human IgG4 S228P, kappa, V domains shown) VH: QVQLQQSGTELVRPGSSVMISCKASGYAFSTYWMDWVKQRPGQGLEWIGQIYPGDGATNYNGKFKGKATLTADKSSITAYMHLSSLTSEDSAVYFCLRSRDYDGWFFDVWGAGTTVTVSS VL: DIVMTQSHKFMSTSIGDRVSITCKASQDVSSAVAWYQQKPGQSPKLLIYWASTRHTGVPDRFTGSGSGTDYTLTFSSVQAEDLALYYCQQHYSTPWTFGGGTKLEIKR	0.17 nM	no binding	0.37 nM	79.2%
LK-RB1-7 (antibody, human IgG4 S228P, kappa, V domains shown) VH: QIQLVQSGPELKKPGETVKISCKASGYTFTTYGMSWVKQAPGKDLKWMGWINTFSGVPACADDFQGRFDFSAEPSDSTAHLQINNLKNEDTATYFCARRSYYGSRGWYFDVWGTGTTVTVSS VL: DVQMIQSPSSLSASLGDIVTMTCQASQDTTINLNWFQQKPGKVPKLLIYGASNLEDGVPSRFSGSSFGTDFTLTISSLEDEDMATYFCLQHTYLPRTFGGGTKLEIRR	0.22 nM	no binding	0.54 nM	69.7%
LK-RB1-13 (antibody, human IgG4 S228P, kappa, V domains shown) VH: QVTLKESGPGIVKPSQTLSLTCSFSGFSLSISGTGIGWIRQPSGKGLEWLAHIWWDDDKYYNPSLKSQVTISKDTSTKQVFLNITSVDTADTATYYCTRTELGRGDFWGQGTSVTVSS VL: DILLTQSPAILSVSPGDRVSFSCRASQSTGTNIHWYQRRTNGSPRLLIKYGSESISGIPSRFSGSGTGTDFTLTINSVESEDIADYYCQQSYSWPYTFGGGTKLEIKR	0.2 nM	no binding	0.42 nM	81.8%
